The values below are quoted from earlier work in article PMC11260871.

Some results are limits rather than exact numbers.

Targets include laminin alpha5 (UniProt O15230); laminin alpha2 (UniProt P24043); laminin alpha4 (UniProt Q16363); laminin alpha1 (UniProt P25391); laminin gamma1 LEb (UniProt P11047).
The target in data set [1] is laminin gamma LN domain LN (UniProt P11047).

Chain of UniProt Q16363 (Q16363 25-1823): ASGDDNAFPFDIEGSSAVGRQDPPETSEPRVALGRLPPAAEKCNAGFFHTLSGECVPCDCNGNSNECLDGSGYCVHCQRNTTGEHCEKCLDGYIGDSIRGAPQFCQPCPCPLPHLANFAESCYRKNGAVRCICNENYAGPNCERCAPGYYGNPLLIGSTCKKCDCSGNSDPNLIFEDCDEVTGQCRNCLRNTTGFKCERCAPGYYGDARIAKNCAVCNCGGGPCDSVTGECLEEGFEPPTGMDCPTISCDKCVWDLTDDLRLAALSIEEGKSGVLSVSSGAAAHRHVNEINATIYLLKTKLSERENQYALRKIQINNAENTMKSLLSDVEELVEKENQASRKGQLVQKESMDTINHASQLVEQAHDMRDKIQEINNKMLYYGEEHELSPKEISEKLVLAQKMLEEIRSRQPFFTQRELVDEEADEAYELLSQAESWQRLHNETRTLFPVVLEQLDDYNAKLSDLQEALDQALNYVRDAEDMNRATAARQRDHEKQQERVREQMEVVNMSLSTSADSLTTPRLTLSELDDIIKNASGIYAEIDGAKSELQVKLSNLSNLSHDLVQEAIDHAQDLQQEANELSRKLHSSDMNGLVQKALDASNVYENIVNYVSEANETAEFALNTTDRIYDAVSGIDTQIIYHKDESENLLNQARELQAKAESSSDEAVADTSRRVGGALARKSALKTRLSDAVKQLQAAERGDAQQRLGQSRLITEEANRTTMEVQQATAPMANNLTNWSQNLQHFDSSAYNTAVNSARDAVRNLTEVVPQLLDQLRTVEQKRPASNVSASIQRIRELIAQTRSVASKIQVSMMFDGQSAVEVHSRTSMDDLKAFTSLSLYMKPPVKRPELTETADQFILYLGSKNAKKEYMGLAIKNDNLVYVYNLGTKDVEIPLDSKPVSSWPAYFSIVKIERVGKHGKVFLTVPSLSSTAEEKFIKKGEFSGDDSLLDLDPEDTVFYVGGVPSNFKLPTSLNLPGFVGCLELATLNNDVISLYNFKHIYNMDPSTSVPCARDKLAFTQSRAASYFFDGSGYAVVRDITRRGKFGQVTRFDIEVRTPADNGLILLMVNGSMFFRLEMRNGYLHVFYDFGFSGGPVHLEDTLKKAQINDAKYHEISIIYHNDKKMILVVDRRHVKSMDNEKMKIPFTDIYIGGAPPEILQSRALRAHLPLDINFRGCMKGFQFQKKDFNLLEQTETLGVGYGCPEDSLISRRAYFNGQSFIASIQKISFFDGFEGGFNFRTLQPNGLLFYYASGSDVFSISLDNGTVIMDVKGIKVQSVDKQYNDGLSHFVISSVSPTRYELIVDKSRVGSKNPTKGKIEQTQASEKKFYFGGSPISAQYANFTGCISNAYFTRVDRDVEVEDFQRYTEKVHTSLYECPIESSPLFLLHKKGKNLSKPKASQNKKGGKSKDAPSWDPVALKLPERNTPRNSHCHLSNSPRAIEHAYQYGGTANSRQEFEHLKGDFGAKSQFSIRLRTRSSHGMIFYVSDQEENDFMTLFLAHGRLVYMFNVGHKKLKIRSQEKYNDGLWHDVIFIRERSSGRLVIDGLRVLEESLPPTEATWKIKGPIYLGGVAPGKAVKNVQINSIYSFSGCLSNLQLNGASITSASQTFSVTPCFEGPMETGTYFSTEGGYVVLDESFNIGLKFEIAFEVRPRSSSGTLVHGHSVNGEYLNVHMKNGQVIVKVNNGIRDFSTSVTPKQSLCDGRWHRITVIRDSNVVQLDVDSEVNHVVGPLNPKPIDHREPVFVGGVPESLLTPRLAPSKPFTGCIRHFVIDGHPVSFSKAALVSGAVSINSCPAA
Chain of UniProt P25391 (P25391 18-3075): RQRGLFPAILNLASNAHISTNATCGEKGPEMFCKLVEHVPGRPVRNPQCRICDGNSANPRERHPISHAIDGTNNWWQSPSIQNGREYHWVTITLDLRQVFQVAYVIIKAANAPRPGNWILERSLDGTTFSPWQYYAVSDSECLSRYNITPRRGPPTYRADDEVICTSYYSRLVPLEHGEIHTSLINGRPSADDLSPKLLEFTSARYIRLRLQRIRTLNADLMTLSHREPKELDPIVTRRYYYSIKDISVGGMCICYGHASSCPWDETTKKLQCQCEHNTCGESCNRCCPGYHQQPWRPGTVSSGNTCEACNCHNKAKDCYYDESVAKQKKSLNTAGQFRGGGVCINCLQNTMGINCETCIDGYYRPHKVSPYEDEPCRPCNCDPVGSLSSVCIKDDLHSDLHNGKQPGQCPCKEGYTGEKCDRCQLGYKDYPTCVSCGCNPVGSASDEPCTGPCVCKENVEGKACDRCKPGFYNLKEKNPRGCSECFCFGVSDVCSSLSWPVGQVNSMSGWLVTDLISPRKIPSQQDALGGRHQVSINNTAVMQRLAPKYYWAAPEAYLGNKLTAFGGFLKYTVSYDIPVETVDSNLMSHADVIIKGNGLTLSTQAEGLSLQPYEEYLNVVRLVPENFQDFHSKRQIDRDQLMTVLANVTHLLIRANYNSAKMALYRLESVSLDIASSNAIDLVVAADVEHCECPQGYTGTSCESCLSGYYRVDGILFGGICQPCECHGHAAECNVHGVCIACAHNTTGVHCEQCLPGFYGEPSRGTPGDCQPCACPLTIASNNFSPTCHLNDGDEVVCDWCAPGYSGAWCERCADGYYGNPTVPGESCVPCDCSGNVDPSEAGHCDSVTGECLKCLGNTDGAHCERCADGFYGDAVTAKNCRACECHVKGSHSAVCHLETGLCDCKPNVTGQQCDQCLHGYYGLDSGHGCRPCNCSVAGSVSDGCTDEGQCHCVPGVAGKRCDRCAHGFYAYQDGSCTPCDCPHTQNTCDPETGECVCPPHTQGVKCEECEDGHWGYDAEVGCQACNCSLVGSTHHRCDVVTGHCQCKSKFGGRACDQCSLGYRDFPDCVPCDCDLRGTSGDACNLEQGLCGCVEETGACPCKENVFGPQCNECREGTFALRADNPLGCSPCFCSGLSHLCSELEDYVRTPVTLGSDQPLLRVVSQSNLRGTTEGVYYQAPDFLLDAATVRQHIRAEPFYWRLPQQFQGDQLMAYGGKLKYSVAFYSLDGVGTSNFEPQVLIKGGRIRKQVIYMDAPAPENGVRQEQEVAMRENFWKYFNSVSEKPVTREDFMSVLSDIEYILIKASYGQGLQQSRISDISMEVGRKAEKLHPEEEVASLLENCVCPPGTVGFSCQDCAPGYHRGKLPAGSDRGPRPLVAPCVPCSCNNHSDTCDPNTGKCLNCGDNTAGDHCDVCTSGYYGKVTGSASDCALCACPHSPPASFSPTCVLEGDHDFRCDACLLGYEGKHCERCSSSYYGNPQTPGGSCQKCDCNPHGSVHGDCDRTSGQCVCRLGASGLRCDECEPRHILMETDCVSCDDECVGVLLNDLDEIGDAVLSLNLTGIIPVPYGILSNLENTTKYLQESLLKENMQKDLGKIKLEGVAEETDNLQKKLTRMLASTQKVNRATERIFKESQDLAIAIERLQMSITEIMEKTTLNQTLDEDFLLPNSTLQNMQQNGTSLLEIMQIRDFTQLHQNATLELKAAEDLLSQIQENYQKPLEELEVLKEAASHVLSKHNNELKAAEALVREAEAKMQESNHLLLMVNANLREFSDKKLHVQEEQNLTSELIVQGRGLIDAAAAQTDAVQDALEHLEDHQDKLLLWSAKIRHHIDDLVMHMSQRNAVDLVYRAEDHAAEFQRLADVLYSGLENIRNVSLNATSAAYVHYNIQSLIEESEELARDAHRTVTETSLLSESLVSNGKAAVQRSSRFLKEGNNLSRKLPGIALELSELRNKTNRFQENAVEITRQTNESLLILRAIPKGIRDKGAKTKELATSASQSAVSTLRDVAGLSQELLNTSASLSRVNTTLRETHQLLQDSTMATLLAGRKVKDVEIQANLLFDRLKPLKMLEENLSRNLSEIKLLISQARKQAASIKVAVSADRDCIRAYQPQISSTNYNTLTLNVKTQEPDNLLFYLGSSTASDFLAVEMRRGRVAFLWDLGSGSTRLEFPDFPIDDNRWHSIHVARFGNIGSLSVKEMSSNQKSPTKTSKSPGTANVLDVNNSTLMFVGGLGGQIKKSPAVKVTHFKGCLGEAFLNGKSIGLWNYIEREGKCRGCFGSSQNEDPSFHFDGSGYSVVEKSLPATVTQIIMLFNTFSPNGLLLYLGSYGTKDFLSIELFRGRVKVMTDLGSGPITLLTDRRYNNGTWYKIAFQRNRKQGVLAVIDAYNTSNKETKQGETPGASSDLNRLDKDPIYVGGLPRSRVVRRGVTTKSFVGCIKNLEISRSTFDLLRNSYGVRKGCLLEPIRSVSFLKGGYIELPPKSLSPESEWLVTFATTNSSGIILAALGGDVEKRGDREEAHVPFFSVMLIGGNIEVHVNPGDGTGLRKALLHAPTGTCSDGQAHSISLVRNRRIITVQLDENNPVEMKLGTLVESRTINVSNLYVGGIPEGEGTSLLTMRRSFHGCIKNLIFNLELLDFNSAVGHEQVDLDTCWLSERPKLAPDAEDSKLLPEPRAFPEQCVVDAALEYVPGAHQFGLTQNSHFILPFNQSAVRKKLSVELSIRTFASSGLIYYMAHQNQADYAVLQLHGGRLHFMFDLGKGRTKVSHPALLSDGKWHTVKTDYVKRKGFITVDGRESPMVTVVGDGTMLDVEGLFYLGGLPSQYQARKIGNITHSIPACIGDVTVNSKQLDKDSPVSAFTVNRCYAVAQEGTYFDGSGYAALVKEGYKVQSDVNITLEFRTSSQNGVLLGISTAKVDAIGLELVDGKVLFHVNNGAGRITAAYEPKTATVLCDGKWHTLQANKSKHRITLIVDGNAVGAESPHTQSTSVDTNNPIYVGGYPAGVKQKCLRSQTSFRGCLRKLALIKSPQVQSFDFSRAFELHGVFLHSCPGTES

Take “laminin beta LN domain LN (from UniProt P07942)”: the Kd in data set [1] is 18000 nM.

As for “alpha-dystroglycan (from UniProt Q14118)”, the dissociation constant Kd was 150 nM with laminin alpha5, 43 nM with laminin alpha2, over 1000 nM with laminin alpha4 and 20 nM with laminin alpha1.

For nidogen-1 G3 (from UniProt P14543), the equilibrium dissociation constant (Kd) with laminin gamma1 LEb was under 1 nM.

One may read the Kd as the concentration at which binding is half-saturated.
